# Experimental data from patent US6753317 (US Dept. of Health and Human Services, dated 2004).
# Starred links: 1 amine or outer side, 2 acyl side, 3 side chain; linkers in the order of their positions; H or OH if unused. Non-standard residues stand in square brackets, D forms with d. *: point of attachment. des‑NH2‑α‑pyrrolidine‑1‑yl = Dmt (2',6'-dimethyl-L-tyrosine) with the α-amine replaced by pyrrolidine-1-yl, Cc1cc(O)cc(C)c1C[C@@H](C(=O)*)N1CCCC1; des‑NH2‑α‑piperidine‑1‑yl = Dmt (2',6'-dimethyl-L-tyrosine) with the α-amine replaced by piperidine-1-yl, Cc1cc(O)cc(C)c1C[C@@H](C(=O)*)N1CCCCC1; βTic = 1,2,3,4-tetrahydroisoquinoline-3-yl acetic acid, O=C(C[C@@H]1Cc2ccccc2CN1[*:1])[*:2]; des‑NH2‑α‑pyrrole‑1‑yl = replacement of the α-amino group by a pyrrol-1-yl group; NH(1-Adamantyl) = C1C2CC3CC1CC(N*)(C2)C3; Dmt = Cc1cc(O)cc(C)c1C[C@H](N)C(=O)O; NH‑tetrazole‑5‑yl = n1nc(N*)n[nH]1; Tic = O=C(O)[C@@H]1Cc2ccccc2CN1; dTic = O=C(O)[C@H]1Cc2ccccc2CN1; NHtBu = CC(C)(C)N*
# Biological target: T1, µ-opioid receptor of the guinea pig ileum (GPI) (guinea pig)
# Test: cell-based or functional assay
Binder,GPI ED50 [µM],GPI Ke [µM],GPI pA2
"{N,N‑dimethyl}-[Dmt]-[dTic]-{NH(1-Adamantyl)} [N,N(Me)2-Dmt-D-Tic-NH-1-adamantane]",4.48,,
H-[Dmt]-[Tic]-Ala-NHtBu (SMILES Cc1cc(O)cc(C)c1C[C@H](N)C(=O)N1Cc2ccccc2C[C@H]1C(=O)N[C@@H](C)C(=O)NC(C)(C)C) [H-Dmt-Tic-Ala-NH-tBu],> 10,0.17,6.76
H-[Dmt]-[Tic]-Ala-NH2 [H-Dmt-Tic-Ala-NH2],4.74,,
{des‑NH2‑α‑piperidine‑1‑yl}-[Dmt]-[Tic]-OH [[des-NH2-α-piperidine-1-yl]-Dmt-Tic-OH],> 10,,
"{N,N‑dimethyl}-[Dmt]-[Tic]-NHtBu [N,N(Me)2-Dmt-Tic-NH-tBu]",> 10,0.3,
{des‑NH2‑α‑pyrrolidine‑1‑yl}-[Dmt]-[Tic]-OH [[des-NH2-α-pyrrolidine-1-yl]-Dmt-Tic-OH],> 10,,
{des‑NH2‑α‑pyrrole‑1‑yl}-[Dmt]-[Tic]-OH [[des-NH2-α-pyrrole-1-yl]-Dmt-Tic-OH],> 10,,
"H-[Dmt]-[Tic]-OH (also: (R,S)-Dmt, racemic, mixture of diastereomers) [H-(R,S)Dmt-Tic-OH]",> 10,,
H-[Dmt]-[βTic]-OH [H-Dmt-βTic-OH],> 10,,
H-[Dmt]-[Tic]-{NH‑tetrazole‑5‑yl} [H-Dmt-Tic-NH-tetrazole-5-yl],8.2,,
"{N,N‑dimethyl}-[Dmt]-[Tic]-NHMe [N,N(Me)2-Dmt-Tic-NHMe]",> 10,0.39,6.41
H-[Dmt]-[Tic]-Ala-NHMe (SMILES CNC(=O)[C@H](C)NC(=O)[C@@H]1Cc2ccccc2CN1C(=O)[C@@H](N)Cc1c(C)cc(O)cc1C) [H-Dmt-Tic-Ala-NHMe],0.29,,
H-[Dmt]-[dTic]-{NH(1-Adamantyl)} [H-Dmt-D-Tic-NH-1-adamantane],1.68,,
H-[Dmt]-[Tic]-Ala-{NH(1-Adamantyl)} [H-Dmt-Tic-Ala-NH-1-adamantane],1,,
H-[Dmt]-[Tic]-NHtBu (SMILES Cc1cc(O)cc(C)c1C[C@H](N)C(=O)N1Cc2ccccc2C[C@H]1C(=O)NC(C)(C)C) [H-Dmt-Tic-NH-tBu],1.04,,
"{N,N‑dimethyl}-[Dmt]-[Tic]-{NH(1-Adamantyl)} [N,N(Me)2-Dmt-Tic-NH-1-adamantane]",0.016,,
H-[Dmt]-[Tic]-{NH(1-Adamantyl)} (SMILES Cc1cc(O)cc(C)c1C[C@H](N)C(=O)N1Cc2ccccc2C[C@H]1C(=O)NC12CC3CC(CC(C3)C1)C2) [H-Dmt-Tic-NH-1-adamantane],0.036,,
H-[Dmt]-[Tic]-NHMe [H-Dmt-Tic-NHMe],> 10,1.15,5.94

# Biological target: T1, µ-opioid receptor of the guinea pig …
# Test: cell-based or functional assay
# Remark: another data set of the same source
row,Binder,"IC50 (µ agonist activity, GPI) [µM]"
1,H-Y[dA]FGYPS-NH2 [dermorphin: H-Tyr-D-Ala-Phe-Gly-Tyr-Pro-Ser-NH2],0.00182
